Data on 33 molecules can be found in patent US6403764.

Experiment [1] concerns the target T1, recombinant human IGFBP-3 (human, UniProt P17936 28-291).
T1 construct: mature; Secreted recombinant protein
Kind of experiment: competitive phage ELISA. How it is done:
(§1) Phage particles were harvested and resuspended in PBS buffer as described in Lowman, H. B., "Phage Display of Peptide Libraries on Protein Scaffolds," in Cabilly, S. (ed.), *Combinatorial Peptide Library Protocols* (Humana Press Inc.: Totowa, N.J., 1998), pp. 249–264. Then phage concentrations were normalized to yield a maximal ELISA signal of 0.2–0.4 for each mutant (Lowman, in Cabilly, S. (ed.), supra). Threefold serial dilutions of soluble competitor were prepared on non-absorbent microtiter plates (Nunc, F, 96 wells) with binding buffer (0.5% TWEEN™ 20/PBS) containing phage at the previously-determined concentrations. The dilution range of competitor protein extended over six orders of magnitude, starting at 5 µM for IGFBP-1 and 500 nM for IGFBP-3. After blocking, the plates containing immobilized target were washed with 0.05% TWEEN™/PBS buffer and subsequently incubated with 80 µl/well of the premixed phage-competitor solutions for 1 hour at room temperature. […] Numbers in Table I represent mean±standard deviation of individually assessed $IC50$ values.
(§2) At least two different clones of every mutant were tested.
In general terms: In an ELISA, binding on a coated surface is turned into a signal by an enzyme label.

A further experiment deals with T2, human IGFBP-1 (human, UniProt P08833 26-259).
T2 construct: mature; Secreted recombinant protein; also called IGFBP-I
T2 sequence (looked up): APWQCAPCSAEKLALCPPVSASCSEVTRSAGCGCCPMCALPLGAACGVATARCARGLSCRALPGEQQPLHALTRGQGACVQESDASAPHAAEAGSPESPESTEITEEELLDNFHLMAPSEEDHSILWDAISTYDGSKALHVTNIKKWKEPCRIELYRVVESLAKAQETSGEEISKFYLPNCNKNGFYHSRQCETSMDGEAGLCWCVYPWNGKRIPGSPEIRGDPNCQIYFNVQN
Kind of experiment: competitive phage ELISA. The procedure:
as §1, §2

T1 sequence (P17936 28-291): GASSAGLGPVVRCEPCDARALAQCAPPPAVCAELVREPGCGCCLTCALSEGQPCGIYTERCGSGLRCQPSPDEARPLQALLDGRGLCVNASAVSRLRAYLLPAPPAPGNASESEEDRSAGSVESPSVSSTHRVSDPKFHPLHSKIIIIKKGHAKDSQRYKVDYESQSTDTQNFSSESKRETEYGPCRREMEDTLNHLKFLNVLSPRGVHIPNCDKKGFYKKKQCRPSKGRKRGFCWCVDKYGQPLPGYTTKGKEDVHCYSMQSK

B1: IGF-I D12A displayed on phage (ligand)
chain: SPETLCGAELVAALQFVCGDRGFYFNKPTGYGSSSRRAPQTGIVDECCFRSCDLRRLEMYCAPLKPAKSV
notes: On phage; G1S-A70V template; not shown: M13 gene III fragment (residues 249-406), the display carrier, and its junction
As for B1, the IC50 (commonly the concentration that gives 50% inhibition) turned out to be 1.49 nM in experiment [1] and 4.3 nM in the experiment with human IGFBP-1.

B2: IGF-I M59A displayed on phage (ligand)
chain: SPETLCGAELVDALQFVCGDRGFYFNKPTGYGSSSRRAPQTGIVDECCFRSCDLRRLEAYCAPLKPAKSV
notes: On phage; G1S-A70V template; not shown: M13 gene III protein fragment (residues 249-406), the phage display carrier, and its junction to IGF-I
Regarding B2, the IC50 in experiment [1] amounted to 0.74 nM; with human IGFBP-1, 13.1 nM.

B3: IGF-I P66A displayed on phage (ligand)
chain: SPETLCGAELVDALQFVCGDRGFYFNKPTGYGSSSRRAPQTGIVDECCFRSCDLRRLEMYCAPLKAAKSV
notes: as for B2
For the molecule B3, the IC50 in experiment [1] worked out at 0.57 nM; in the experiment with human IGFBP-1, 9.4 nM.

B4: IGF-I K68A displayed on phage (ligand, not shown: large carriers; small tags and cut ends)
chain: SPETLCGAELVDALQFVCGDRGFYFNKPTGYGSSSRRAPQTGIVDECCFRSCDLRRLEMYCAPLKPAASV
notes: On phage; G1S-A70V template
Consider B4, for which the results for the half-maximal inhibitory concentration (IC50) (in experiment [1]; with human IGFBP-1) were 0.76 nM and 10.5 nM, respectively.

B5: IGF-I R56A displayed on phage (ligand)
chain: SPETLCGAELVDALQFVCGDRGFYFNKPTGYGSSSRRAPQTGIVDECCFRSCDLRALEMYCAPLKPAKSV
notes: On phage; G1S-A70V template; not shown: Display partner: M13 gene III protein fragment (residues 249-406, mature count) and the junction to it
With B5, the IC50 stood at 1 nM in experiment [1] and 13.1 nM with human IGFBP-1.

B6: IGF-I E58A displayed on phage (ligand)
chain: SPETLCGAELVDALQFVCGDRGFYFNKPTGYGSSSRRAPQTGIVDECCFRSCDLRRLAMYCAPLKPAKSV
notes: as for B2
Take B6: the IC50 in experiment [1] stood at 1.03 nM; in the experiment with human IGFBP-1, 11.9 nM.

B7: IGF-I R55A displayed on phage (ligand)
chain: SPETLCGAELVDALQFVCGDRGFYFNKPTGYGSSSRRAPQTGIVDECCFRSCDLARLEMYCAPLKPAKSV
notes: as for B5
As to B7, the half-inhibitory concentration (IC50) was 0.66 nM in experiment [1] and 9 nM with human IGFBP-1.

B8: IGF-I D20A displayed on phage (ligand)
chain: SPETLCGAELVDALQFVCGARGFYFNKPTGYGSSSRRAPQTGIVDECCFRSCDLRRLEMYCAPLKPAKSV
notes: On phage; G1S-A70V template; not shown: Display carrier: M13 gene III protein fragment (residues 249-406) and the junction to it
Take B8: the IC50 is 1.11 nM in experiment [1] and 8.4 nM with human IGFBP-1.

B9: IGF-I R37A displayed on phage (ligand, not shown: large carriers)
chain: SPETLCGAELVDALQFVCGDRGFYFNKPTGYGSSSRAAPQTGIVDECCFRSCDLRRLEMYCAPLKPAKSV
notes: On phage; G1S-A70V template
For the molecule B9, the IC50 in experiment [1] was 0.75 nM; with human IGFBP-1, 12.3 nM.

B10: IGF-I S69A displayed on phage (ligand, not shown: large carriers; small tags and cut ends)
chain: SPETLCGAELVDALQFVCGDRGFYFNKPTGYGSSSRRAPQTGIVDECCFRSCDLRRLEMYCAPLKPAKAV
notes: On phage; G1S-A70V template
Consider B10, for which the half-maximal inhibitory concentration (IC50) in experiment [1] worked out at 0.71 nM; in the experiment with human IGFBP-1 it was 12.8 nM.

B11: IGF-I S51A displayed on phage (ligand)
chain: SPETLCGAELVDALQFVCGDRGFYFNKPTGYGSSSRRAPQTGIVDECCFRACDLRRLEMYCAPLKPAKSV
notes: as for B5
Take B11: the IC50 was determined as 0.65 nM in experiment [1] and 13.4 nM with human IGFBP-1.

B12: IGF-I N26A displayed on phage (ligand)
chain: SPETLCGAELVDALQFVCGDRGFYFAKPTGYGSSSRRAPQTGIVDECCFRSCDLRRLEMYCAPLKPAKSV
notes: as for B8
Consider B12, for which the IC50 was 0.9 nM in experiment [1] and 9.1 nM in the experiment with human IGFBP-1.

B13: IGF-I K65A displayed on phage (ligand)
chain: SPETLCGAELVDALQFVCGDRGFYFNKPTGYGSSSRRAPQTGIVDECCFRSCDLRRLEMYCAPLAPAKSV
notes: as for B2
Regarding B13, the IC50 in experiment [1] was 0.69 nM; with human IGFBP-1 it was 12.4 nM.

B14: IGF-I L14A displayed on phage (ligand)
chain: SPETLCGAELVDAAQFVCGDRGFYFNKPTGYGSSSRRAPQTGIVDECCFRSCDLRRLEMYCAPLKPAKSV
notes: as for B1
Take B14: the half-inhibitory concentration (IC50) in experiment [1] turned out to be 0.9 nM; in the experiment with human IGFBP-1, 36.7 nM.

B15: IGF-I S35A displayed on phage (ligand, not shown: large carriers)
chain: SPETLCGAELVDALQFVCGDRGFYFNKPTGYGSSARRAPQTGIVDECCFRSCDLRRLEMYCAPLKPAKSV
notes: On phage; G1S-A70V template
Consider B15, for which the IC50 is 0.47 nM in experiment [1] and 11.7 nM with human IGFBP-1.

B16: IGF-I L5A displayed on phage (ligand, not shown: large carriers; small tags and cut ends)
chain: SPETACGAELVDALQFVCGDRGFYFNKPTGYGSSSRRAPQTGIVDECCFRSCDLRRLEMYCAPLKPAKSV
notes: On phage; G1S-A70V template
Turning to B16, the results for the 50% inhibitory concentration (IC50) (in experiment [1]; in the experiment with human IGFBP-1) were 1.53 nM and 55.3 nM, respectively.

B17: IGF-I G22A displayed on phage (ligand)
chain: SPETLCGAELVDALQFVCGDRAFYFNKPTGYGSSSRRAPQTGIVDECCFRSCDLRRLEMYCAPLKPAKSV
notes: as for B8
B17: the results for the IC50 (in experiment [1]; in the experiment with human IGFBP-1) were 2.07 nM and 15.9 nM, respectively.

B18: IGF-I L54A displayed on phage (ligand)
chain: SPETLCGAELVDALQFVCGDRGFYFNKPTGYGSSSRRAPQTGIVDECCFRSCDARRLEMYCAPLKPAKSV
notes: as for B5
For B18, the IC50 is 1.83 nM in experiment [1] and 23.1 nM in the experiment with human IGFBP-1.

B19: IGF-I F16A displayed on phage (ligand)
chain: SPETLCGAELVDALQAVCGDRGFYFNKPTGYGSSSRRAPQTGIVDECCFRSCDLRRLEMYCAPLKPAKSV
notes: as for B1
Take B19: the figures for the IC50 (in experiment [1]; with human IGFBP-1) were 1.32 nM and 57.8 nM, respectively.

B20: IGF-I E3A displayed on phage (ligand, not shown: large carriers; small tags and cut ends)
chain: SPATLCGAELVDALQFVCGDRGFYFNKPTGYGSSSRRAPQTGIVDECCFRSCDLRRLEMYCAPLKPAKSV
notes: On phage; G1S-A70V template
On to B20, for which the half-inhibitory concentration (IC50) is 1.05 nM in experiment [1] and 278 nM in the experiment with human IGFBP-1.

B21: IGF-I F25A displayed on phage (ligand)
chain: SPETLCGAELVDALQFVCGDRGFYANKPTGYGSSSRRAPQTGIVDECCFRSCDLRRLEMYCAPLKPAKSV
notes: as for B8
For the molecule B21, the IC50 was 3.69 nM in experiment [1] and 181 nM with human IGFBP-1.

B22: IGF-I T4A displayed on phage (ligand, not shown: large carriers; small tags and cut ends)
chain: SPEALCGAELVDALQFVCGDRGFYFNKPTGYGSSSRRAPQTGIVDECCFRSCDLRRLEMYCAPLKPAKSV
notes: On phage; G1S-A70V template
On to B22, for which the results for the IC50 (in experiment [1]; with human IGFBP-1) were 0.8 nM and 19.4 nM, respectively.

B23: IGF-I L10A displayed on phage (ligand)
chain: SPETLCGAEAVDALQFVCGDRGFYFNKPTGYGSSSRRAPQTGIVDECCFRSCDLRRLEMYCAPLKPAKSV
notes: as for B1
On to B23, for which the IC50 in experiment [1] was 3.55 nM; in the experiment with human IGFBP-1, 311 nM.

B24: IGF-I F23A displayed on phage (ligand)
chain: SPETLCGAELVDALQFVCGDRGAYFNKPTGYGSSSRRAPQTGIVDECCFRSCDLRRLEMYCAPLKPAKSV
notes: as for B8
As to B24, the half-maximal inhibitory concentration (IC50) in experiment [1] came to 2.18 nM; in the experiment with human IGFBP-1, 10.9 nM.

B25: IGF-I Q15A displayed on phage (ligand)
chain: SPETLCGAELVDALAFVCGDRGFYFNKPTGYGSSSRRAPQTGIVDECCFRSCDLRRLEMYCAPLKPAKSV
notes: as for B1
For B25, the IC50 in experiment [1] amounted to 1.26 nM; with human IGFBP-1, 13.9 nM.

B26: IGF-I D53A displayed on phage (ligand)
chain: SPETLCGAELVDALQFVCGDRGFYFNKPTGYGSSSRRAPQTGIVDECCFRSCALRRLEMYCAPLKPAKSV
notes: as for B5
Consider B26, for which the values for the half-maximal inhibitory concentration (IC50) (in experiment [1]; with human IGFBP-1) were 1.05 nM and 15.3 nM, respectively.

B27: IGF-I R21A displayed on phage (ligand)
chain: SPETLCGAELVDALQFVCGDAGFYFNKPTGYGSSSRRAPQTGIVDECCFRSCDLRRLEMYCAPLKPAKSV
notes: as for B8
B27: the results for the IC50 (in experiment [1]; with human IGFBP-1) were 0.58 nM and 7.1 nM, respectively.

B28: IGF-I G19A displayed on phage (ligand)
chain: SPETLCGAELVDALQFVCADRGFYFNKPTGYGSSSRRAPQTGIVDECCFRSCDLRRLEMYCAPLKPAKSV
notes: as for B1
As for B28, the results for the IC50 (in experiment [1]; with human IGFBP-1) were 0.9 nM and 11 nM, respectively.

B29: IGF-I L57A displayed on phage (ligand)
chain: SPETLCGAELVDALQFVCGDRGFYFNKPTGYGSSSRRAPQTGIVDECCFRSCDLRRAEMYCAPLKPAKSV
notes: as for B2
Regarding B29, the IC50 in experiment [1] was 1.78 nM; with human IGFBP-1, 21.8 nM.

B30: IGF-I Q40A displayed on phage (ligand, not shown: large carriers)
chain: SPETLCGAELVDALQFVCGDRGFYFNKPTGYGSSSRRAPATGIVDECCFRSCDLRRLEMYCAPLKPAKSV
notes: On phage; G1S-A70V template
B30: the IC50 in experiment [1] was 0.56 nM; in the experiment with human IGFBP-1 it was 10.2 nM.

B31: IGF-I K27A displayed on phage (ligand)
chain: SPETLCGAELVDALQFVCGDRGFYFNAPTGYGSSSRRAPQTGIVDECCFRSCDLRRLEMYCAPLKPAKSV
notes: as for B8
Regarding B31, the half-inhibitory concentration (IC50) was 0.66 nM in experiment [1] and 12.8 nM in the experiment with human IGFBP-1.

B32: IGF-I L64A displayed on phage (ligand)
chain: SPETLCGAELVDALQFVCGDRGFYFNKPTGYGSSSRRAPQTGIVDECCFRSCDLRRLEMYCAPAKPAKSV
notes: as for B2
For the molecule B32, the figures for the half-maximal inhibitory concentration (IC50) (in experiment [1]; with human IGFBP-1) were 0.93 nM and 12.1 nM, respectively.

B33: IGF-I E9A displayed on phage (ligand)
chain: SPETLCGAALVDALQFVCGDRGFYFNKPTGYGSSSRRAPQTGIVDECCFRSCDLRRLEMYCAPLKPAKSV
notes: as for B1
As for B33, the half-maximal inhibitory concentration (IC50) came to 1.32 nM in experiment [1] and 8.6 nM with human IGFBP-1.
